Results on 48 molecules are retold here after patent US20030167129A1 (published 2003).

Where no end group is shown, it is not given here. [ ]: non-standard residue; d: D form. 1Nal = N[C@@H](Cc1cccc2ccccc12)C(=O)O; 2Nal = N[C@@H](Cc1ccc2ccccc2c1)C(=O)O; Tic = O=C(O)[C@@H]1Cc2ccccc2CN1; Aib = CC(C)(N)C(=O)O

Test [1] has as its target T1, CXCR4 (CXC chemokine receptor 4), tagged construct not stated (human, UniProt P61073 1-352).
T1 construct: whole, on cells; Receptor of the radioligand displacement assays of the peptides; in insect cell membranes; also called the receptor; CXCR4-containing membranes
Description: inhibition of [125I]-SDF1α binding to CXCR4.

Test [2] has as its target T1, CXCR4 (CXC chemokine receptor 4), …. Nature of the test: radioligand displacement of [125I]-SDF-1 from CXCR4.
Test [3] has as its target CXCR4 as HIV co-receptor in the HIV infectivity assay (HELA / Magi cells) (UniProt P61073 1-352, limits assumed). Description: cell-based or functional assay.
The target of test [4] is T2, SDF-1α (UniProt P48061-2 22-89, 125I label on the radioligand form).
T2 construct: Labelled and unlabelled forms are kept as one molecule
Description: radioligand saturation binding, [125I]-SDF-1α on membrane preparations of GST-CXCR4 (High Five).
Description: Whole cells from Sf9 and High five cell lines were lysed using hypotonic buffers (10 mM Tris, pH 7.4, 5 mM EDTA), and membrane preparations were made by homogenization and centrifugation using standard techniques known to those skilled in the art. […] For filtration and washing, the reaction was transferred to Millipore Multiscreen filter plates (HATF 0.45 μm; pre-blocked with 10% BSA) (Bedford, Mass.), filtered using vacuum, washed 4-5 times with 200 μL ice-cold buffer, and radioactive counts bound were detected using scintillation counting. All points were done in triplicate. Uninfected cells were used as a control for this experiment. […] Analyses of KD and IC₅₀ were performed using non-linear curve fitting in Kaleidagraph (software program sold by Synergy Software, Reading, Pa.).

Test [5] concerns the target T1, CXCR4 (CXC chemokine receptor 4), …. Description: binding inhibition curves, [125I]-SDF1α displacement.

T2 sequence (P48061 22-89 limits assumed): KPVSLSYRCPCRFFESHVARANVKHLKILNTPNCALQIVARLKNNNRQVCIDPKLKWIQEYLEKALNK

ARSLIWRPARRRRR [CPI-1297]: the binding result in test [1] is recorded as “binds”.

Turning to MARSLI[1Nal]RPAKAKKK [CPI-1291], the binding result in test [1] is “binds”.

Take MARSLIWRPAKARRR [CPI-1289]: the binding result in test [1] is listed as “binds”.

With MARSLIWEPARRWRR [CPI-1372], in test [1], the binding result is reported as “binds”.

Consider FARSLI[2Nal]AARR[2Nal]RR [CPI-1390], for which the binding result in test [1] is “binds”.

B1: CPI-1221 (peptide)
peptide: MARSLIWRPAKAKKK
notes: Original 15-mer consensus peptide; also called M-A-R-S-L-I-W-R-P-A-K-A-K-K-K
In general, IC50 refers to the concentration at which inhibition is half-maximal. In test [2], B1 displayed an IC50 of approximately 60 µM.

Take MARSLIWRPAKAKKA [CPI-1312]: the binding result in test [1] is recorded as “binds”.

On to MARSLIWAPAKAKKK [CPI-1305], for which, in test [1], the binding result was “binds”.

As for MARSLIWRPAAAKKK [CPI-1306], the binding result in test [1] is given as “binds”.

For MARSLIWRPAKAAKK [CPI-1301], the binding result in test [1] was “binds”.

MARSLIWRPAKAKAK [CPI-1310]: the binding result in test [1] is recorded as “binds”.

In the case of MARSLIWRAAKAKKK [CPI-1295], the binding result in test [1] is given as “binds”.

With MARSTIWRPAKAKKK [CPI-1298], the binding result in test [1] was “binds”.

With MAASLIWRPAKAKKK [CPI-1329], in test [1], the binding result is on record as “binds”.

As for MARSAIWRPAKAKKK [CPI-1307], the binding result in test [1] is recorded as “binds”.

With MARSLAWRPAKAKKK [CPI-1308], the binding result in test [1] is given as “binds”.

Regarding MARSFIWRPAKAKKK [CPI-1296], the binding result in test [1] is reported as “binds”.

With MARSLIWGPAKAKKK [CPI-1334], the binding result in test [1] is “binds”.

Turning to MARSLIARPAKAKKK [CPI-1304], the binding result in test [1] is reported as “binds”.

Consider MAASLIWRPAKAKKK [SEQ ID NO 12 (Table 1 row without a CPI number)], for which the binding result in test [1] was “binds”.

Take MARALIWRPAKAKKK [CPI-1328]: in test [1], the binding result is “binds”.

With MARSLI[2Nal]RPAKAKKK [CPI-1309], in test [1], the binding result was “binds”.

Take MARSLIWRPAKKK [CPI-1249]: the binding result in test [1] is “binds”.

With MARSLIWRP[Aib]KAKKK [CPI-1303], the binding result in test [1] is on record as “binds”.

B2: CPI-1500 (peptide)
peptide: ARSLI[2Nal]R[Tic]ARR[2Nal]RR-NH2
modifications: N-terminus assumed
SMILES: CC[C@H](C)[C@H](NC(=O)[C@H](CC(C)C)NC(=O)[C@H](CO)NC(=O)[C@H](CCCNC(=N)N)NC(=O)[C@H](C)N)C(=O)N[C@@H](Cc1ccc2ccccc2c1)C(=O)N[C@@H](CCCNC(=N)N)C(=O)N1Cc2ccccc2C[C@H]1C(=O)N[C@@H](C)C(=O)N[C@@H](CCCNC(=N)N)C(=O)N[C@@H](CCCNC(=N)N)C(=O)N[C@@H](Cc1ccc2ccccc2c1)C(=O)N[C@@H](CCCNC(=N)N)C(=O)N[C@@H](CCCNC(=N)N)C(N)=O
Regarding B2, the “inhibition of HIV IIIb infection, EC50” value in test [3] stood at 0.28 µM.

Consider FARSLIERAARRWRR [CPI-1330], for which the binding result in test [1] is recorded as “binds”.

On to RSLIWRPAKAKKK [CPI-1247], for which the binding result in test [1] is “binds”.

ISLIWRPAKAKKK [CPI-1248]: the binding result in test [1] was “binds”.

Regarding ARSIWRLARRWRR [CPI-1382], the binding result in test [1] is “binds”.

On to MARSLIWRPAREWRR [CPI-1377], for which the binding result in test [1] is given as “binds”.

Regarding ARSLIWRLARRWRR [CPI-1425], the binding result in test [1] is recorded as “binds”.

Take MARSLIWRPAERWRR [CPI-1373]: the binding result in test [1] is “binds”.

For the molecule MARSLIWR[Tic]AKAKKK [CPI-1302], the binding result in test [1] was “binds”.

For the molecule ARSLIWRPAKAKKK [CPI-1292], the binding result in test [1] is “binds”.

For the molecule MARSLIWRPARRRRR [CPI-1332], in test [1], the binding result was “binds”.

As to RSLIWRPAK [CPI-1250], in test [1], the binding result is recorded as “binds”.

As for FARSLI[2Nal]EAARR[2Nal]RR (also called FARSLI(2-Nal)EAARR(2-Nal)RR) [CPI-1389], the binding result in test [1] is recorded as “binds”.

B3: CXCR4-GST (receptor, human, UniProt P61073 1-352, looked up)
chain: MEGISIYTSDNYTEEMGSGDYDSMKEPCFREENANFNKIFLPTIYSIIFLTGIVGNGLVILVMGYQKKLRSMTDKYRLHLSVADLLFVITLPFWAVDAVANWYFGNFLCKAVHVIYTVNLYSSVLILAFISLDRYLAIVHATNSQRPRKLLAEKVVYVGVWIPALLLTIPDFIFANVSEADDRYICDRFYPNDLWVVVFQFQHIMVGLILPGIVILSCYCIIISKLSHSKGHQKRKALKTTVILILAFFACWLPYYIGISIDSFILLEIIKQGCEFENTVHKWISITEALAFFHCCLNPILYAFLGAKFKTSAQHALTSVSRGSSLKILSKGKRGGHSSVSTESESSSFHSS
notes: whole, on cells; Full-length receptor expressed by baculovirus in High Five or Sf9 insect cells; assayed as membrane preparations or solubilized and immobilized on glutathione resin; also called GST-CXCR4 (High Five); CXCR4 with C-terminal GST tag; not shown: C-terminal GST tag
By Kd is commonly meant the constant that tells how readily two partners part at equilibrium. Low values mean tighter binding, high ones weaker binding. Consider B3, for which binding in test [4] was characterised by a dissociation constant (Kd) of 0.00327 µM.

For FHEFRSLIWRPAKAKKK [CPI-1300], the binding result in test [1] is “binds”.

For the molecule YHEFRSLIWRPAKAKKK [CPI-1299], the binding result in test [1] is listed as “binds”.

ARSLI[2Nal]RAARR[2Nal]RR (also called ARSLI(2-Nal)RAARR(2-Nal)RR) [CPI-1365]: in test [5], the binding result is listed as “binds”.

As for ARSLI[2Nal]RPARR[2Nal]RR (also called ARSLI(2-Nal)RPARR(2-Nal)RR) [CPI-1701], the binding result in test [1] is on record as “binds”.

Turning to ARSLI[2Nal]RHARR[2Nal]RR (also called ARSLI(2-Nal)RHARR(2-Nal)RR) [CPI-1443], the binding result in test [1] was “binds”.

B4: CPI-1366 (peptide)
peptide: Ac-ARSLI[2Nal]RAARR[2Nal]RR
notes: also called Ac-ARSLI(2-Nal)RAARR(2-Nal)RR
As to B4, the binding result in test [1] is “binds”.

ARSLI[2Nal]R[Tic]ARR[2Nal]RR [CPI-1458]: in test [1], the binding result is on record as “binds”.

As to KKKARSLIWRPAKAKKK [CPI-1331], the binding result in test [1] was “binds”.

With MAESLIWRPARRWRR [CPI-1374], the binding result in test [1] is recorded as “binds”.

B5: CPI-1456 (peptide)
peptide: RRARSLI[2Nal]RAARR[2Nal]RR
notes: also called RRARSLI(2-Nal)RAARR(2-Nal)RR
For B5, the binding result in test [1] was “binds”.
